{"source": "patent US6506889", "about": "(UNIVERSITY TECHNOLOGY, dated 2003)", "binders": {"B1": {"name": "C. elegans SUR-8 fused to the GAL4 activation domain (other, not shown: large carriers)", "chain": "METSKEFEFRPAKETSRSKSPGGIVGRLSNFARNKARHSLSEKGSNSVGGSGGAGFDKPRKDLLKEFHKCKEAQDQRLDLSSIEITSIPSPIKELTQLTELFLYKNKLTCLPTEIGQLVNLKKLGLSENALTSLPDSLASLESLETLDLRHNKLTEVPSVIYKIGSLETLWLRYNRIVAVDEQIGNLSKLKMLDVRENKIRELPSAIGKLTSLVVCLVSYNHLTRVPEEIGDCHSLTQLDLQHNDLSELPYSIGKLVNLVRIGIRYNKIRCIPSELESCQQLEEFIVESNHLQLLPPNLLTMLPKIHTVNLSRNELTAFPAGGPQQFVSTVTINMEHNQISKIPIGIFSKATRLTKLNLKENELVSLPLDMGSWTSITELNLSTNQLKVLPEDIEKLVNLEILVLSNNQLKKLPNQIGNLNKLRELDLEENELETVPTEIGFLQHLTKLWVQSNKILTLPRSIGNLCSLQDLRLGENNLTAIPEEIGHLDSLKSLYLNDNSSLHNLPFELALCQSLEIMSIENSPLSQIPPEITAGGPSLVIQYLKMQGPYRGVVMNSQ", "notes": "Yeast two-hybrid construct: 1.7 kb sur-8 cDNA cloned in-frame into pACT2; also called Ce SUR-8; wild-type SUR-8"}}, "key": {"[1]": {"molecular_target": "T1, wild type LIN-45 Raf (yeast two-hybrid fusion) (C. elegans, UniProt Q07292 1-813)", "T1 construct": "Tested against SUR-8 and against LET-60 Ras and its mutants; The constructs for the two tests may differ; not shown: two-hybrid fusion partner", "T1 sequence (looked up)": "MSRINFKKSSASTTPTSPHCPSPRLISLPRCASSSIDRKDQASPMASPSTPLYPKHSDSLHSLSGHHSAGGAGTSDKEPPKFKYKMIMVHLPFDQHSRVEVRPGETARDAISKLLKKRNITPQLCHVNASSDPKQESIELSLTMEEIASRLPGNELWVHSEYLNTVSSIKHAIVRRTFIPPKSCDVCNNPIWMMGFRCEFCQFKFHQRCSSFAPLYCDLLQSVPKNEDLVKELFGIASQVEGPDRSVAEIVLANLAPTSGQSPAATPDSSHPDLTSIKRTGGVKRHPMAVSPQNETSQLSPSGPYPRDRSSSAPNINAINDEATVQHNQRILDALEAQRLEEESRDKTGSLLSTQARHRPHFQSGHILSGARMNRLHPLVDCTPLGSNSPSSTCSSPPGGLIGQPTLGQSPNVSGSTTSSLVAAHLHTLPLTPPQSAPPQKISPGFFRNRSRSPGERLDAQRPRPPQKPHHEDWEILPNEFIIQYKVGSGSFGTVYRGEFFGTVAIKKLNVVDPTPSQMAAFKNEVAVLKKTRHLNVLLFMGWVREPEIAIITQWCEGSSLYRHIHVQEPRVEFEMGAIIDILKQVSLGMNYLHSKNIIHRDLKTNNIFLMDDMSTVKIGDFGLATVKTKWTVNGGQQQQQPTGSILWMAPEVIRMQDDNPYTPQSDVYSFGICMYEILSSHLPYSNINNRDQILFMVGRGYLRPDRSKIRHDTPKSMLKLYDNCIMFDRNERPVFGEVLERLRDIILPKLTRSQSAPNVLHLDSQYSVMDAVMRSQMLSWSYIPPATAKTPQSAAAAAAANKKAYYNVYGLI", "test": "yeast two-hybrid"}, "[2]": {"molecular_target": "B1", "test": "yeast two-hybrid, His and LacZ reporters"}, "[3]": {"molecular_target": "T2, C. elegans SUR-8 ku242 C233Y (yeast two-hybrid fusion) (C. elegans, UniProt Q22875 1-559)", "T2 sequence": "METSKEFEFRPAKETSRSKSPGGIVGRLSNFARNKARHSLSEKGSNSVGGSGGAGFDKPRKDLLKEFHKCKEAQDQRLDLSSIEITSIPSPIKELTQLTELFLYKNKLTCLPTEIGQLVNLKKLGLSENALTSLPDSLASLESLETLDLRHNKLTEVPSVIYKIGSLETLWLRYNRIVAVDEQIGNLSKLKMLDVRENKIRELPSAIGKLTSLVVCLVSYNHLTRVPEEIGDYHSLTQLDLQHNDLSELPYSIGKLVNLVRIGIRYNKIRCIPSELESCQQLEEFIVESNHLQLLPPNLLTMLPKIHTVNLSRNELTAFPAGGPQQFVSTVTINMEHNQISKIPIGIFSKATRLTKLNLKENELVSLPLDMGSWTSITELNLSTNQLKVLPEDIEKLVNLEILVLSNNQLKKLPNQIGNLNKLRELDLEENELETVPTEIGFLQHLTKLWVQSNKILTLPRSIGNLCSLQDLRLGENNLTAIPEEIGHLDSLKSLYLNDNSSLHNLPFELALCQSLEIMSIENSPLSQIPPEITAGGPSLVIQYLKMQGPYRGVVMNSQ", "test": "yeast two-hybrid"}, "[4]": {"molecular_target": "T3, C. elegans SUR-8 deletion mutant lacking the N-terminal 88 amino acid non-LRR region (C. elegans, UniProt Q22875 89-559)", "T3 construct": "Range 89-559 is worked out from 'deletion of the N-terminal 88 amino acid' and the printed length of 559", "T3 sequence": "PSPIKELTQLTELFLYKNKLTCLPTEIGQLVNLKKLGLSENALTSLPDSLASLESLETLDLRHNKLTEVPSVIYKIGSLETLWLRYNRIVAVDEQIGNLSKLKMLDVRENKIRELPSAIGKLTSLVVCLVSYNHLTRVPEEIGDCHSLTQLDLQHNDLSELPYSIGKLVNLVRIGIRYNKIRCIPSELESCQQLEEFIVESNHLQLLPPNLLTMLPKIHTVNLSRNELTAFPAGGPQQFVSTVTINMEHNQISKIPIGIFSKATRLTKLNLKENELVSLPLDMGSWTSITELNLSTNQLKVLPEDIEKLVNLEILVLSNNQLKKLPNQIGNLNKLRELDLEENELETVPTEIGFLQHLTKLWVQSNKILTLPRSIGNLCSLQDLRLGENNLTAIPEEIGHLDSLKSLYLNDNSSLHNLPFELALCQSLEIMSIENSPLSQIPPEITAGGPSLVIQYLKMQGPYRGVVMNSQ", "test": "yeast two-hybrid"}}}
{"binder": "B1", "values": [{"measurement": "binding result", "setting": "[1]", "value": "no binding"}]}
{"binder": "MEK-2 MEK (yeast two-hybrid fusion) (enzyme, C. elegans, UniProt Q10664 1-387, looked up, not shown: two-hybrid fusion partner) MSSGKRRNPLGLSLPPTVNEQSESGEATAEEATATVPLEEQLKKLGLTEPQTQRLSEFLQVKEGIKELSEDMLQTEGELGHGNGGVVNKCVHRKTGVIMARKLVHLEIKPSVRQQIVKELAVLHKCNSPFIVGFYGAFVDNNDISICMEYMDGLSLDIVLKKVGRLPEKFVGRISVAVVRGLTYLKDEIKILHRDVKPSNMLVNSNGEIKLCDFGVSGMLIDSMANSFVGTRSYMAPERLTGSHYTISSDIWSFGLSLVELLIGRYPVPAPSQAEYATMFNVAENEIELADSLEEPNYHPPSNPASMAIFEMLDYIVNGPPPTLPKRFFTDEVIGFVSKCLRKLPSERATLKSLTADVFFTQYADHDDQGEFAVFVKGTINLPKLNP", "values": [{"measurement": "binding result", "setting": "[2]", "value": "no binding"}]}
{"binder": "MPK-1 MAP kinase (yeast two-hybrid fusion) (enzyme, C. elegans, UniProt P39745-2 1-376, looked up, not shown: two-hybrid fusion partner) MADGEAVISTVNNVEEVHGQLFEVAPRYVNLSYIGEGAYGMVASALDTITRDRVAIKKISPFEHQTFCQRTLREIKILNRFKHENIINIQEIIRSETVDSLKDIYIVQCLMETDLYKLLKTQKLSNDHVCYFLYQILRGLKYIHSANVLHRDLKPSNLLLNTTCDLKICDFGLARVTDPQTDHTGFLTEYVATRWYRAPEIMLNSKGYTKSIDVWSVGCILAEMLSNRPLFPGKHYLDQLNLILAVVGSPSNADLQCIINDKARSYLISLPHKPKQPWARLYPGADPRALDLLDKMLTFNPHNRIDIEQALAHPYLEQYYDPGDEPVCEEPFTLEMEFDDLPKEKLKELIWEEAEAHHRRMEAEAAARNNGGQNPV", "values": [{"measurement": "binding result", "setting": "[2]", "value": "no binding"}]}
{"binder": "wild type LET-60 Ras fused to the GAL4 DNA binding domain (enzyme, UniProt P04386 1-147, looked up) MKLLSSIEQACDICRLKKLKCSKEKPKCAKCLKNNWECRYSPKTKRSPLTRAHLTEVESRLERLEQLFLLIFPREDLDMILKMDSLQDIKALLTGLFVQDNVNKDAVTDRLASVETDMPLTLRQHRISATSSSEESSNKGQRQLTVSMTEYKLVVVGDGGVGKSALTIQLIQNHFVEEYDPTIEDSYRKQVVIDGETCLLDILDTAGQEEYSAMRDQYMRTGEGFLLVFAVNEAKSFENVANYREQIRRVKDSDDVPMVLVGNKCDLSSRSVDFRTVSETAKGYGIPNVDTSAKTRMGVDEAFYTLVREIRKHRERHDNNKPQKKKKCQIM", "values": [{"measurement": "binding result", "setting": "[3]", "value": "no binding"}, {"measurement": "binding result", "setting": "[4]", "value": "no binding"}]}
